T1: recombinant cyno C1r2s2 His/Flag tetramer (cynomolgus monkey, limits assumed)
T1 construct: Heterotetramer of two C1r-His and two C1s-Flag chains, co-expressed in FreeStyle293-F cells; also called cyno C1r2s2s
T1 chain 1: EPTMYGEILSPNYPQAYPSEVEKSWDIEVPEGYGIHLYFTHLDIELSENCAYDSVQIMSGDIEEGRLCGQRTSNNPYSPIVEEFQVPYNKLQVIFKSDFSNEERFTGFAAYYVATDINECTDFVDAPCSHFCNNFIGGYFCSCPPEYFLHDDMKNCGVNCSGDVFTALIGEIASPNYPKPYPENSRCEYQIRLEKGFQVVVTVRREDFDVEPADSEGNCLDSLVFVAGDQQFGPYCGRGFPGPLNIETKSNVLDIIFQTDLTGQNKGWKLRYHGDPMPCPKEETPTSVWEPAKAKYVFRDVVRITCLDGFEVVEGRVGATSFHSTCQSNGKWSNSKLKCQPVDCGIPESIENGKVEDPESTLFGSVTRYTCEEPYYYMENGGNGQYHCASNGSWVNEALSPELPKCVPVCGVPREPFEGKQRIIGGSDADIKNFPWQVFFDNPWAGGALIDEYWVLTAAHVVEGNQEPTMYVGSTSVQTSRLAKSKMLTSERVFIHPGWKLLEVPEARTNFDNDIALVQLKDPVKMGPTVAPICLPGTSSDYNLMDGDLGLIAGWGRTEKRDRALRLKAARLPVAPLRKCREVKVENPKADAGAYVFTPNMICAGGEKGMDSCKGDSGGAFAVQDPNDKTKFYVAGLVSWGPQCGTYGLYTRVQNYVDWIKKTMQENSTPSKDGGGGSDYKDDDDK
T1 chain 2: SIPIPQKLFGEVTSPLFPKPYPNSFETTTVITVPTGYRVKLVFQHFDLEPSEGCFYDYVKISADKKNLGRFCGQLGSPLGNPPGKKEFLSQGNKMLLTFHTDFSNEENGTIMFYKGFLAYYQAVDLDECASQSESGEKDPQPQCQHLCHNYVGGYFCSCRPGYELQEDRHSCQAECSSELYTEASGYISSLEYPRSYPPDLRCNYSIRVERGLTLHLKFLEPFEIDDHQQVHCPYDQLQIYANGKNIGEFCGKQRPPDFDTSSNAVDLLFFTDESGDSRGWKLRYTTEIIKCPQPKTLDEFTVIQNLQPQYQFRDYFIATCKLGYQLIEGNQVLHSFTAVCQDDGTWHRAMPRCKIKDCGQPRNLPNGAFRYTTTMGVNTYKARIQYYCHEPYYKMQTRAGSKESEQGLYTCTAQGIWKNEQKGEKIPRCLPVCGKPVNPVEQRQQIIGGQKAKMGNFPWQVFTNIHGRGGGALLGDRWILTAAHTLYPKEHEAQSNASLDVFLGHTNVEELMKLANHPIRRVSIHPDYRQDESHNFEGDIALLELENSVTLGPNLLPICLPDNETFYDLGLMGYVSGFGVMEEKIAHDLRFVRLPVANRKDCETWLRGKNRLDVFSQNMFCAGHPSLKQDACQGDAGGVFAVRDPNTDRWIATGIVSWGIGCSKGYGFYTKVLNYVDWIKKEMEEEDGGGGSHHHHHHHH


Biological target: T1, recombinant cyno C1r2s2 His/Flag …
Assay: SPR (Biacore), pH5.8*: dissociation at pH5.8 after association and dissociation at pH7.4, 37 C, Scrubber fit
Protocol: The kinetic parameters of anti-C1s antibodies against recombinant human C1s (as described in PCT/JP2018/042054), human C1r2s2, and cyno C1r2s2 His/Flag (also referred as cyno C1r2s2 in the Table and Figures) were assessed at pH7.4 and pH5.8, at 37 degrees C. using BIACORE (registered trademark) T200 instrument (GE Healthcare) or BIACORE 4000 (GE Healthcare). ProAG (Pierce) was immobilized onto a CM4 sensorchip using amine coupling kit (GE Healthcare) according to the recommended settings by GE Healthcare. Antibodies and analytes were diluted into the respective running buffers, ACES pH7.4 and pH5.8 (20 mM ACES, 150 mM NaCl, 1.2 mM CaCl₂, 1 mg/ml BSA, 1 mg/ml CMD, 0.05% Tween 20, 0.005 w/v % NaN₃). Each antibody was captured onto the sensor surface by ProA/G. Antibody capture levels were typically 100-200 resonance units (RU). Then, recombinant C1s was injected at concentrations of 25 and 50 nM followed by dissociation at pH7.4 and pH5.8. The surface was regenerated using 10 mM Glycine-HCl, pH1.5. Kinetic parameters at neutral pH conditions and acidic conditions were determined by fitting the sensorgrams with 1:1 binding model using BIACORE (registered trademark) T200 Evaluation software, version 2.0 (GE Healthcare) or BIACORE 4000 Evaluation software. The dissociation rate at pH5.8 (after dissociation at pH7.4, indicated as pH5.8* in TABLE 2) was determined by processing and fitting data using Scrubber 2.0 (BioLogic Software) curve fitting software. The association rate (ka), dissociation rate (kd), binding affinity (KD) at pH7.4 and pH5.8 condition, and dissociation rate (kd) at pH5.8* condition of the antibodies are listed in TABLE 2. Some kinetic parameters of COS0098pHv1 in acidic condition were not correctly calculated because of its weak binding response.
Also, to observe the cross-reactivity of anti-C1s antibodies against human C1r2s2 and cyno C1r2s2 (cyno C1r2s2 His/Flag), BIACORE (registered trademark) kinetics analysis was performed.

Binder	koff
COS0098bb (antibody, V domains shown, Anti-C1s rabbit antibody, parent of COS0098pHv1; the antibody was captured by ProA/G; also called anti-C1s antibody COS0098bb) VH: QSVEESGGRLVTPGTPLTLTCTVSGFSLTKYTVSWVRQAPGKGLEWIGIINTGGSAYYATWAKGRFTFSKTSTTVDLQITSPTTEDTATYFCARGNGDTDYTNLWGPGTLVTVSS VL: QVLTQTPSSVSEPVGGTVTINCQASENIYSALAWYQQKPGQPPKLLIYGASNLESGVPSRFKGSGSGTQFTLTISDLECADAATYYCQQYYFTSSTFGGGTKVEIK	0.000926 s⁻¹
COS0098pHv1 (antibody, V domains shown, Humanized, optimized pH-dependent variant of COS0098bb) VH: QVQLVQSGAEVKKPGSSVKVSCKASGHTFSKYTVSWIRQPPGKGLEWIGIINTGGSAYPATWAKGRVTITADESTSTAYMELSSLRSEDTAVYYCARGAGDTDYTNLWGQGTLVTVSS VL: DIQMTQSPSSLSASVGDRVTITCQASENIYSALAWYQQKPGQPPKLLIYGASQLESGVPSRFSGSGSGTDFTLTISSLQPEDFATYYCQQYYFTSHTFGQGTKVEIK	0.0618 s⁻¹

— patent publication US20230002481A1 (Chugai, published 2023)
